Results as given in article PMC8327139, “Nodal modulator (NOMO) is required to sustain endoplasmic reticulum morphology” (The Journal of Biological Chemistry, 2021).

Molecular target: the molecule itself
Assay: SEC-MALS; NOMO1-FLAG on a Superose 6 column, RT, 50 mM MES pH 6.0, 150 mM KCl, 5 mM MgCl2, 5 mM CaCl2, 2% glycerol, 0.05% DDM; protein conjugate analysis to correct for detergent

B1: NOMO1-FLAG (nodal modulator 1, full length, C-terminal FLAG tag) (natural protein, human, UniProt Q15155 32-1222, looked up)
chain: SEDIVVGCGGFVKSDVEINYSLIEIKLYTKHGTLKYQTDCAPNNGYFMIPLYDKGDFILKIEPPLGWSFEPTTVELHVDGVSDICTKGGDINFVFTGFSVNGKVLSKGQPLGPAGVQVSLRNTGTEAKIQSTVTQPGGKFAFFKVLPGDYEILATHPTWALKEASTTVRVTNSNANAASPLIVAGYNVSGSVRSDGEPMKGVKFLLFSSLVTKEDVLGCNVSPVPGFQPQDESLVYLCYTVSREDGSFSFYSLPSGGYTVIPFYRGERITFDVAPSRLDFTVEHDSLKIEPVFHVMGFSVTGRVLNGPEGDGVPEAVVTLNNQIKVKTKADGSFRLENITTGTYTIHAQKEHLYFETVTIKIAPNTPQLADIIATGFSVCGQISIIRFPDTVKQMNKYKVVLSSQDKDKSLVTVETDAHGSFCFKAKPGTYKVQVMVPEAETRAGLTLKPQTFPLTVTNRPMMDVAFVQFLASVSGKVSCLDTCGDLLVTLQSLSRQGEKRSLQLSGKVNAMTFTFDNVLPGKYKISIMHEDWCWKNKSLEVEVLEDDMSAVEFRQTGYMLRCSLSHAITLEFYQDGNGRENVGIYNLSKGVNRFCLSKPGVYKVTPRSCHRFEQAFYTYDTSSPSILTLTAIRHHVLGTITTDKMMDVTVTIKSSIDSEPALVLGPLKSVQELRREQQLAEIEARRQEREKNGNEEGEERMTKPPVQEMVDELQGPFSYDFSYWARSGEKITVTPSSKELLFYPPSMEAVVSGESCPGKLIEIHGKAGLFLEGQIHPELEGVEIVISEKGASSPLITVFTDDKGAYSVGPLHSDLEYTVTSQKEGYVLTAVEGTIGDFKAYALAGVSFEIKAEDDQPLPGVLLSLSGGLFRSNLLTQDNGILTFSNLSPGQYYFKPMMKEFRFEPSSQMIEVQEGQNLKITITGYRTAYSCYGTVSSLNGEPEQGVAMEAVGQNDCSIYGEDTVTDEEGKFRLRGLLPGCVYHVQLKAEGNDHIERALPHHRVIEVGNNDIDDVNIIVFRQINQFDLSGNVITSSEYLPTLWVKLYKSENLDNPIQTVSLGQSLFFHFPPLLRDGENYVVLLDSTLPRSQYDYILPQVSFTAVGYHKHITLIFNPTRKLPEQDIAQGSYIALPLTLLVLLAGYNHDKLIPLLLQLTSRLQGVRALGQAASDNSGPEDAKRQAKKQKTRRT
notes: Nodal modulator 1 (NOMO1), human, type I transmembrane glycoprotein: luminal domain (1124 residues), TM domain, 40-residue cytosolic tail; cloned from a Dharmacon plasmid into pcDNA3.1+; 135 kDa with the tag; Membrane protein kept in dodecyl maltoside (0.05% DDM); also called full-length NOMO1-FLAG; full-length NOMO; source: Expi293F, transfected, purified in DDM (anti-FLAG M2 beads, FLAG peptide …)
  stoichiometry N: 2
